Data: the RNAGym collection of RNA variant scans (doi:10.7554/elife.90254)

B1: OR4K15 (parent)
chain: GUUAACGGUCAUAGGCCAUGGAAACUAGGAGCACCAUUUCGCUGCCAGUGAAGAAAUGAACAAAGAAAAUCUGGGCCAGGCAGGCAUCAAAAGAAAUAGUCUUGCGCUCAACCAGAAAGUCUGUAAUCAUUUUAAGGGUA

Variants of: B1
Test: self-cleavage, relative activity (ratio to wild type); higher = more cleavage; in vitro, sequencing; the parent is a self-cleaving ribozyme

| Variant | self-cleavage |
| --- | --- |
| A62G A92U | 1.01 |
| G29A A33G | 0.88 |
| U57C A129U | 1.47 |
| A22U U130C | 0.32 |
| A55G A63G | 1.43 |
| C16U A22C | 1.53 |
| G31U A82U | 0.27 |
| A5U U39C | 1.1 |
| A60C U120C | 0.98 |
| A62U U102A | 0.57 |
| A22U A30C | 0.38 |
| A86C A94G | 0.32 |
| A55G A114U | 0.02 |
| G79U A94G | 0.43 |
| A91G G99A | 0.21 |
| U9C C35A | 1.71 |
| A47G U122C | 0.62 |
| A24U U127C | 1.36 |
| A89U A118U | 0.73 |
| A89U A98G | 0.66 |
| A59U A92G | 0.79 |
| A36G A63U | 1.91 |
| U57C A82C | 0.23 |
| A5G A62U | 1.09 |

| Variant | self-cleavage |
| --- | --- |
| A60G A118U | 0.79 |
| U12C A23U | 0.97 |
| G7A U26A | 0.93 |
| U2C A78C | 0.4 |
| A24G A118U | 0.51 |
| U108C U131A | 0.02 |
| C35A A91G | 1.42 |
| A86U U139G | 1.57 |
| G41A A82U | 0.14 |
| A23G C45U | 1.23 |
| A5G A135U | 1.26 |
| U72A A82C | 0.35 |
| A96U A118G | 1.17 |
| A60G A69G | 0.19 |
| A47G A89G | 1.1 |
| G31U A82G | 0.19 |
| G48U A91G | 1 |
| A78G A125G | 0.1 |
| A33C A135G | 1.64 |
| A51U A59U | 0.5 |
| A78G U122G | 0.15 |
| U49C A54U | 0.94 |
| U102A U124C | 0.88 |
| A47G A56G | 1.03 |

| Variant | self-cleavage |
| --- | --- |
| U39A U70C | 0.92 |
| A18G A114G | 0.77 |
| A23U A94G | 1.18 |
| U12C A63C | 1.12 |
| A62G U132A | 1.9 |
| A59G U70A | 0.56 |
| U70G U97C | 1.01 |
| A52C A82G | 0.55 |
| C45G U100C | 1.37 |
| A24G A116G | 0.61 |
| A23G A91U | 1.57 |
| G79A A91C | 0.09 |
| A23U A56G | 1.29 |
| G58U A110G | 0.11 |
| A22G G137A | 1.63 |
| A22G G138U | 0.66 |
| A86G U132C | 1.16 |
| G28U A135C | 2.26 |
| C105U A111G | 0.02 |
| A55U C109U | 0.31 |
| A69U A94U | 2.23 |
| A69G U108A | 0.02 |
| C35A C112U | 0.03 |
| A60G U103C | 0.78 |

| Variant | self-cleavage |
| --- | --- |
| U19C U100C | 1.97 |
| A69G U127C | 0.82 |
| U57A U139C | 0.25 |
| A110G A117G | 0.16 |
| G15A U131G | 1.44 |
| U38G A95G | 2.17 |
| A27G A98G | 0.77 |
| U102A A140G | 1.02 |
| G50C A56G | 1.42 |
| U38C A140G | 2.16 |
| A18U A33C | 1.61 |
| A90C U100A | 0.92 |
| G65A A91G | 0.96 |
| U38C U57A | 1.48 |
| A51U A111G | 0.04 |
| U39A A51G | 2.15 |
| A55G A140U | 0.81 |
| A24G C77U | 1.55 |
| C81A | 0.25 |
| A59G A92U | 1.08 |
| C10U A118G | 0.33 |
| C34U U120G | 0.94 |
| U9G A59G | 1 |
| A22U U132C | 1.99 |

| Variant | self-cleavage |
| --- | --- |
| U38A A116G | 0.81 |
| A33G A92C | 0.81 |
| G79U U100C | 0.03 |
| U103A A135G | 0.73 |
| A13G A56U | 1.33 |
| C76G A82U | 0.22 |
| G119A U139C | 2.96 |
| A60G A68G | 1.31 |
| A11G G83A | 1.23 |
| G14U | 1.11 |
| C77U U103C | 2.12 |
| A95G A111U | 0.15 |
| A54G U57G | 0.2 |
| A23U U37C | 1.41 |
| A91G U124C | 0.62 |
| U12A A95G | 1.29 |
| A13C A66G | 0.52 |
| C34U U103A | 0.44 |
| G14A A134U | 0.5 |
| U12A A55G | 1.3 |
| U3C U9C | 1.36 |
| A13U A22G | 1.38 |
| A47G G106A | 0 |
| A67G A134U | 1.12 |

| Variant | self-cleavage |
| --- | --- |
| A86G U100C | 2.12 |
| A68G C128U | 1.44 |
| A24G U43A | 1.29 |
| A67G A92C | 1.62 |
| A4C U87C | 0.81 |
| A13G G104A | 0.06 |
| U38C A96G | 1.51 |
| U102A G115A | 0.06 |
| U39A A64G | 0.93 |
| G41C A98G | 0.57 |
| U9A C109A | 0.42 |
| A98G G104A | 0.01 |
| A60U U102C | 2.8 |
| U39A A68G | 1.32 |
| U108C A135U | 0.01 |
| C71U A114U | 0.06 |
| A59G U87G | 0.3 |
| G29U A62G | 1.65 |
| A111U A126G | 0.06 |
| A56G C105U | 0.12 |
| U43C C113U | 0.04 |
| A67G A135G | 2.06 |
| A22G A63G | 1.72 |
| A94G U108A | 0.01 |

| Variant | self-cleavage |
| --- | --- |
| U2C A114C | 0.03 |
| A18G C101U | 0.85 |
| U100C U130C | 2.02 |
| U19C A69G | 1.05 |
| A66G U130G | 0.2 |
| A54U A92G | 1.54 |
| A55G A111U | 0.21 |
| C10U A68G | 0.34 |
| U2A U100C | 0.89 |
| U103G G119A | 0.01 |
| G15C U108C | 0.03 |
| A118C U139A | 1.24 |
| A60C U72C | 0.16 |
| A18G G138A | 1.27 |
| A22G C40U | 1.85 |
| U19A U97G | 1.84 |
| A33U A51C | 2.09 |
| U19A A111C | 0.01 |
| A24G U97A | 1.79 |
| C46U A118U | 0.76 |
| A117G U139C | 1.34 |
| G7A U127C | 1.29 |
| G31A G73U | 0.3 |
